Data on two molecules can be found in patent US20120076787A1 (published 2012).

Experiment [1] addresses T1, human TNFα (human, UniProt P01375 77-233).
T1 construct: also called TNF ligand; TNFα (Peprotech)
The experiment can be described thus: assay not stated (description of the dAb in Example 11).

Experiment [2] concerns the target T2, Recombinant human B7-1 Fc Chimera (RnD Systems, 140-B1-100), biotinylated (human, UniProt P33681 35-242, biotinylated (ECL biotinylation module, GE Healthcare, at a quarter of the kit recommended level)).
T2 construct: Bought reagent; also called biotinylated B7-1; Fc part of the bought chimera not given
T2 sequence (looked up): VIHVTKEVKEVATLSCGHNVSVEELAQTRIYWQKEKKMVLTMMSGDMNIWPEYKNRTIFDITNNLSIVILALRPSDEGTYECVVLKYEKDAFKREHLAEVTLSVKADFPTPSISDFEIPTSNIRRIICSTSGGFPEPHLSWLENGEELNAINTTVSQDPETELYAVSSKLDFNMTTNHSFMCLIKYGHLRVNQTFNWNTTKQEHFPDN
The experiment can be described thus: bridging ELISA: coated VEGFR2 Fc, titrated control, detection with biotinylated B7-1 Fc and ExtrAvidin peroxidase. (In general: An ELISA detects its analyte on a solid surface through an enzyme-linked reagent.)

T1 sequence (P01375 77-233 limits assumed): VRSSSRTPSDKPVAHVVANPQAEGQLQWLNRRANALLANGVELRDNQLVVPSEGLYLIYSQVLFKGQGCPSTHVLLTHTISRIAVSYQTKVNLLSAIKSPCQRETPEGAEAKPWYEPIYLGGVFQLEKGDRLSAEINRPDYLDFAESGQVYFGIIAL

B1: PEP1-5-19 (anti-TNFα dAb) (other)
VL: DIQMTQSPSSLSASVGDRVTITCRASQSIDSYLHWYQQKPGKAPKLLIYSASELQSGVPSRFSGSGSGTDFTLTISSLQPEDFATYYCQQVVWRPFTFGQGTKVEIKR
notes: Vk domain antibody (dAb), monomer; also called Anti-TNFα Vk dAb (PEP1-5-19)
As for B1, in experiment [1], the Kd is roughly 8 nM.

B2: BPC1801 (bispecific IGF1R-VEGFR2 antigen binding construct) (bispecific antibody, human IgG1, kappa)
heavy: not shown
light: DIVMTQSPLSLPVTPGEPASISCRSSQSIVQSNGDTYLEWYLQKPGQSPQLLIYRVSNRFSGVPDRFSGSGSGTDFTLKISRVEAEDVGVYYCFQGSHVPYTFGQGTKLEIKRTVAAPSVFIFPPSDEQLKSGTASVVCLLNNFYPREAKVQWKVDNALQSGNSQESVTEQDSKDSTYSLSSTLTLSKADYEKHKVYACEVTHQGLSSPVTKSFNRGEC
notes: Negative control of the VEGFR2/B7-1 bridging ELISA
Turning to B2, the binding result in experiment [2] is on record as “no binding”.

The Kd is the equilibrium constant for the complex coming apart. A high value points to weaker binding.
